# The DeepSol protein solubility set
# Assay: soluble on expression in E. coli; label from the status in PepcDB or PDB records
row,Sequence,soluble on expression in E. coli
1,MGHHHHHHHHHHSSGHIEGRHMANPLAGKPFYVDPASAAMVAARNANPPNAELTSVANTPQSYWLDQAFPPATVGGTVARYTGAAQAAGAMPVLTLYGIPHRDCGSYASGGFATGTDYRGWIDAVASGLGSSPATIIVEPDALAMADCLSPDQRQERFDLVRYAVDTLTRDPAAAVYVDAGHSRWLSAEAMAARLNDVGVGRARGFSLNVSNFYTTDEEIGYGEAISGLTNGSHYVIDTSRNGAGPAPDAPLNWCNPSGRALGAPPTTATAGAHADAYLWIKRPGESDGTCGRGEPQAGRFVSQYAIDLAHNAGQ,soluble
2,MGSDKIHHHHHHMDMLLKKILGTFGVSGREKEISEVIKEELNKYPCEVREDKLGNIIVKLGSGREKIMLSTNMDKKGVITYHIEEDGKVRIDAIGDIKADDIIGKTVVFRSGIEGKIESEKKENNEFRDIYVNVNMGKREAVLKYISEGEAAEFGGNTFADKENVVGPYLSNRAGCYAFLKVIKEIKSIDKEVYFVFSTQGNLNGRGARAAAFEIEPDMCISVNTEKEGEVKLSEGPILVLMEKGLITNYHVKEQIISSAEKAQIKLQRCVSSESSDGSVVHKEVGGIKTGTIALPCKNKNETNETISLNDVDDLVKLLQYIVKK,not soluble
3,GANDRYTETKRIVDSHCLHTICSSGRCPNMGECWGKGTATFMIGGDICTRSCKFCNTQTGRPHPLDANEPTHVAESIALMKLDHAVVTSVDRDDLPDLGAGHWAHTIREIKRLNPQTTIEVLIPDFQGRMELVDLVIEANPDIISHNMETVRRISPLVRSAANYDTSLQVIGHIARSGTKSKSGIMVGLGETPQEVETIMDDLLAVGCQILTIGQYLQPTHRHYPVAEYVTPQQFATYKTIGLEKGFSIVESAPLVRSSYHAEKHIR,not soluble
4,MGHHHHHHSHMFIASKKSYFEAVYRSTVSSHSEEFWKSDDPVYFTQYKKQCNRLPNAYLGTLHSASKYSENFRHYVATFSNSPLDFPQSVFNERNPCEYSVPYLDSALQCSAKTLVGCSVSTTERNEYEVCKEATRCFKDAMSHKVLKVFLSNLSWFLKGHYKSKQAFLEPFQKQLILHSFMFVASIKCPETTTKLFDEFKFLLDMLYFDNTDLLTFLQKSPAFLIPRRHGKTWIVTAIISMLLTSVDDLHIGYVAHQKHVSLAVFLEISNILLAWFPRKNIDIKKENGVILYSHPGKKSSTLMCATCFNKNVSVI,not soluble
5,MKEKVFFKTFGCRTNIYDTELLKSYVKDYEIINDENKAQIIVVNSCTVTNGADSGIKSYVNTMQKKGIKVILTGCGAVSKGKELLDKKQVFGVLGASNKDKINEFLGAKTSFYELGNLNFIDKDIVCEYENHTKAFVKIQEGCDFACSYCIIPSVRGKSRSVDEKALLKQVEILGANGYSEIVLTGTNIGSYGLKNGTTLGKLLQKMGQILGIKRIRLGSLEPAQLDESFLEILDEAWLERHLHIALQHTSEKMLRIMRRRSHTDNDLKLFNTIASKGYALGTDFIVAHPGESEELWQEALRNFKEFPLTHIHAFIFSPRNNTHSATMKDVINGTLAKERLNTLKSIVEKNNYEFRKKNQVSLEVLVENQKDGFFEGYDQFFNKIKIKSDKDIAKEWIVISEYEVQEKSNFTNLKGLEHHHHHH,soluble
6,MSLTSKNQFYKPGMLVPVFSAAGLLKNGRYQFLLQQIETLSLLPTEQYAQLYEALVYRFVEFVQVLPIRLDEPLCSLMNEGLLRGVNSLNHYIQNHPEATPLERYALFSAGLLLEVAHAVVNQKIFITDEEGNFIKQWNPFSGPLIDDVETKHYKIMPLSSYYQRNIPSITPILVRQLLPDEGFLWLTSDMRVFSDWMQALRDDEGEGGGRFEHVLQLFKHKNIDGLFNTLPALPVNLQDSPATAHADAFLNWLKEALATNQIKVNTSDAGVHVIPEGVFLEKTGIFKQYIDLHVNVPVNLFTVYQQFGNLFGLTKLSGIDYRFEQLFSEYPDALKRKSKMGFAGLIGIRRASPTREGVLIADPNLIFTRGEIPSATSYLKLSSAQKSQNIPMTEGHHHHHH,soluble
7,MGSDKIHHHHHHMNFKEALEGIKLVLESKAVPLLVGESGIGKTSLVKKLSKDEEYYYINIDGNLLKEGEIGGLPVVQDYGDEKSLIKKTVYAAYYKFIKIDEILKNNPNQKVLLFIDEINRCEHSVQQEIMNIILNREINGYKLKDNITVIAAMNPSSKYDEFEESDYQVNDMDPAQEDRFVWIYLESDVNNWIEWGHERINGESRIHEDILGFIASFPEYLSTPNSKESIKATPRSWERVSNIYKAYIKKKTKVSRNIFYNLIRGNVGTSIAQDFINYIDESKSPLLTPEDIFANDCISEDIKDRIRKESHSRLFLSAKNILFYLENKEDRSREVEIFSEFLSLYPNDLKLGIMQNIKSDSSKKLYKEFLENTSFLENFFLMYEGIED,not soluble
8,MAHHHHHHMKYRYDEKIHKGLYSEDNSTSMNNRYNNNESTYKMPKEILNRHEKIDLNSLPIDEEIINNLKIILNIEKLYMYQYIIYNEILKNSKHLLIYNKTGTGKTLSYLLPLIQKLINDKFDCNKKVLIITQNIYLCKQLYIYILSIYPTLNVCILSDEKESYNMNNNINNDIIVNIKRNNINPNDKENNDMCDEKYGIHFYLCTPNKLEYFIKNYKNKSRNDKNVMNNILNNINTIVIDEFDYIVEYRKNILNFFFKKDLFNEIHNNNNIRDKNRFNHDIFNKSNYNIYLFTANINEVIKKKIYEHLNGFVFFDFINGIKEHIQKQVAEQHNFNIDVLKNSENVVQLLNKENKNESLCNLNITHFVCKINSASKYKYVCYFLEEFFFHKQKISQKVYNDMVYDEYDKLNYRNMIPMEENKFVNNSEKEGNMKRSNADKINKCIIFANTKEEVEKLYEISLLKPHAVMMHSELLTIQKNENINLFKVGKKNVLITTDIISRGLDIDNVIFILNYSPPTSPNDYIHRSGRTGRGKEKGICLTMYHKYEYRNVDKIMKYTKNKFEVILCPKVEDVYKFSVDKLVENVMKIAPEKYEFFNEKSKELLKKHNTKIIAQILSILLKFDKKSFDVSLLSGKKNYVAVLIKDPFFEVIKNRDDIINIIKVITGNKIITTIIGDVAKCDEGFIVDISSSHVNKIISLFNSSNFEYKSKGLEINTLIELPPIIKEKKNIIRRKKKAPWIT,not soluble
9,MSLMLSHNPIVEPFALAHATIVTGDKAGTILRNMTIVVGADGRIEQVAPSIETSIPAEYHYLDGTGKIVMPGLINAHTHLFSQGKPLNPKLATPKGQRMVATFAHSPLGKPYMAATVKHNATTLLESGVTTIRTLGDVGYEVVTLRDQIDAGQILGPRILASGPLMAIPEGHGAPLIALTSGTPEEARTAVAQNLKAGVNAIKIAATGGVTDAQEIGEAGSPQMSVEQMRAICDEAHQYGVIVGAHAQSPEGVRRSLLAGVDTIEHGSVLDDELIGMFRHNPNALRGYSALIPTLSAGLPLTLLGQDVTGITDIQLENSKNVVGGMVSGARQAHEAGLMIGVGTDTGMTFVPQYATWRELELLVAYAGFSPAEALHAATAVNASILGVDAETGSLEVGKSADLLVLNANPLDDLRALEHPALVIAAGHPVWRPGPKRFADIDALLDEAYAEGHHHHHH,soluble
10,MILIRLEPGMDLMEEMRAAFSEGVVVTGIGSLHRVRIRTADESELTVEGPLEILSLQGTISPDGVHIHIAVADSEGRVTGGHLRGDSPVRTTAEIAVIPYQGVLRRVMDRRTGYRELLVLE,not soluble
11,MSLKIRDPYIDERTNMVVIRESPDVVRLAERLVELQDRNDSEVVLEVEVLEVSSTKLTQLGVQYPNSFTLTPLSATGASSLTLSDFKGLNSDRIGVSTPNVVLNLRRELGDTDLLANPKIRAKNHEKAKILIGDKLPVITTTSTSTGFVSESVQYIDVGLKLEVEPSISPDDEVSMKINLEVSSLTNQITTRSGTVAYQIGTRTANTVLKLHDGETQLLAGLIKTQQTSSAARIPGLGDIPLLGRLFSSQTDNGVRNEIVLSITPRVVKPSHRPDTNEGHHHHHH,soluble
12,MSETKNITVPEINKTVEQMLIKGRWLDALDFWINNTDSLVLIRWLAQFISQLSPEEDSLLLQSIVRWKEGDDEQRWEIFRHAESVGFSTQTGALGVSLFVSQGSLSPAPYDPVYAPSCSEKKIIYGILMHQSNKYYDAPDEGVFFLFRHWCNSHS,not soluble
13,MHKRFAALAAPLLYLACASAQADTMRCGSALVSVGDRAFEVQQKCGDPDHRDDVGYTLGSYDRREFKVEEWVYGPRNGVTYILTFEANKLKRIEFKR,not soluble
14,MSLMSVVKVGVNGFGTIGRRVALAITLQKDMKLVGVVKRTPDYAALYAASRGIPIYTPTAKEAEEFEKRGIKVGGTLRELLARVDVVVDATPEGQGAKNKPLYREAGVKQVYQGGEKPEVAEASFSTLCNYEESKGRGSLRVVSCNTTGLLRLICTLNREFGVESVRAVLVRRGADPKEVKKGPIDSIVLNPPTLPSHHAVDVRTVLPWLDIKTAAVAVPTTFMHMHHVTLKLAKPVEKREVLETLASAPRIMLVSSGDTGIKSTSQLVDAARLSRMGYDIPELVVFEESVAVDGREVMLFQAVHQESIVVPENIDAIRAVASSPLTLDETLKATDGSLGLRKTLW,soluble
15,MLGVRMSGSVLDEEAEKLMDYDYLLEKLYKKVPPKSGTSEYRIPEPQIIRIGSQTVIRNFREIAQALKRDPKLVARYLQKELATAASYEEESGQLILNVKVSRKVVNQFLQLFMKTYVRCPTCGSIDTKLLRQERAYMLKCEACGAEQPVKPI,soluble
16,MSLEQTVDIEVQGIRGFRAVRNTDLNVNLINKEEMDGSERYQHLVTKAVDRGLRVFGYYESSVRFERKQRQGKRDLLIAHVTPGEPTKIAGTDVQIEGEAAQDENFNALRKNLPKDGVLVEHQTYDDYKTAISRLALNRGYFDGNFKISRLEISPETHQAWWRMLFDSGVRYHYGNITFSHSQIRDDYLNNILNIKSGDPYLMNNLSDLTSDFPSSNWFSSVLVQPNVNHKSKTVDVEIILYPRKKNAMELGVGFSTDGGVHGQIGWTKPWINSRGHSLRSNLYLSAPKQTLEATYRMPLLKNPLNYYYDFAVGWEGEKENDTNTRVLTLSALRYWNNAHGWQYFGGLRMRYDSFTQADITDKTLLLYPTVGFTRTRLRGGSFATWGDVQKITFDLSKRIWLSESSFIKVQASSAWVRTYAENHRVVARAEIGYLHTKGIEKIPPTLRFFAGGDRSVRGYGYKKIAPKNRNGKLVGGSRLLTTSLEYQYQVYPNWWAATFADSGLAADNYTAKELRYGTGVGVRWASPVGAIKFDIATPIRDKDNSKNIQFYIGLGTEIEGHHHHHH,not soluble
17,MGSDKIHHHHHHAEKLSDGKVKLGVLTDMTGYYADLAGPGSVVAARMAVEDFGGKVLGKPVELVSADHQLKADVASNIARKWIDEGQVDAIVDLVSSSTAGAVMPVAAEKKRITLLSGPGTTAFTGEKCTRYNVHYTYNNWALANGTGREVVKQGGDSWFFLTADYIFGKSLEEDTTKVVKAAGGKVLGAARYPSPGTTDFSSYLLQAQGSGAKIVGLANAGADTVNSIRQAEEFGVTPKQSLAGLLVFITDVHSLGLEAAKGMYLTTAFYWDLNDETRKWSRRFFQKHGKMPTMVQAGVYSSVMHYLKAVQAAGTDDADAVMAKMRETPVNDFFAKNARIGPDGLLRHDMYLARVKAPKDSKQPWDYYQIVKTIPAAEAFPSVEAQACPLAKR,not soluble
18,MSIWQRVSFTHRFSQLPSAFYTLVEPQPLDNTRWVAWNGEFAQQFGLPAAQNDELLAVFSGQSEFEPFRPLAMKYAGHQFGVYNPDLGDGRGLLLAEIEHQNGTWFDIHLKGAGLTPYSRMGDGRAVLRSTIREYLCSEAMAGLGIPTTRALGMVVSDTPVYREKTEFGAMLIRMAETHVRFGHFEHLFYTNQLAEQKLLADKVIEWHFADCASAEKPYAAMFGEIVQKTADMIAYWQAYGFAHGVMNTDNMSILGQTFDYGPFGFLDDYEPGYICNHSDYQGRYAFEQQPRIALWNLSALAHALSPLVEREDLEQALSQFEGRLSQQFSRLMRSKLGLKTKIAEDGRLFESMFELLNQNHTDYTRFFRALSNLDKQPAQEVIDLFIDREAAQAWLDLYLARCELEVDEIGEPISAEQRSEQMRQTNPKYILRNYLAQLAIDKAEEGDFSEVHRLAEILRHPYDSQPEFEAYAKLPPEWGKKMEISCSSLEHHHHHH,not soluble
